According to the supplement of paper PMC9732359:
± gives the uncertainty stated by the source.

assay: protein stability index of a GFP-peptide fusion (yeast GPS) (PSI 1-4); higher = more stable; sorted into four equal gates, so the index is relative within each strain; settings: doa10∆
In short: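 Mid-log yeast cultures in leucine-free medium, carrying a pooled plasmid library, were sorted into four equal gates by their GFP/Cherry fluorescence ratio. Each plasmid expressed Cherry along with GFP fused upstream of a tiled 17-residue yeast protein peptide. Plasmids recovered from each gate were PCR-amplified and Illumina-sequenced, with reads assigned to strains by barcodes. The protein stability index was obtained by summing each gate's read frequency weighted by its gate number.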

Sequence | protein stability index
AAGALFVSSGFDTSIKL [RPN14] | 2.41 ± 0.052
AAGIWTCSCCKKTVAGG [RPL43A] | 2.42 ± 0.13
AAGSYYVEAQHKLVFVV [RPL7A] | 2.33 ± 0.072
AAKLKQTENDLKDIEAR [RPT1] | 2.48 ± 0.1
AAKTRSYNWGAKAKRRH [RPL37A] | 3.7 ± 0.15
AALAPKIGPLGLSPKKV [RPL12A] | 2.66 ± 0.13
AAQAQAQAQAQAQAQAQ [GAL11] | 2.69 ± 0.045
AARDNKKTRIIPRHLQL [HTA1] | 3.04 ± 0.18
AAREKKIRELEAELSST [YIL149C/MLP2] | 2.46 ± 0.29
AARVDIGQIIFSVRTKD [RPL10] | 1.74 ± 0.078
AASTPTTTATPHANPIT [PGD1] | 2.91 ± 0.044
ADIENSTSGDPSEFHCL [SSN2] | 3.15 ± 0.18
ADINLEESIRESLQKRE [SIR3] | 3.4 ± 0.085
ADNVDKILEQFEYVLYP [FAS2] | 2.05 ± 0.067
ADRNDDDEGSFAQENSE [SRB6] | 3.08 ± 0.11
ADTLDPALLRPGRLDRK [RPT3] | 3.57 ± 0.17
ADYRLILTGTPLQNNLP [SNF2] | 2.08 ± 0.047
AEDDVIIPQDILDCVVT [YJR042W/NUP85] | 3.18 ± 0.1
AELDLMSGILHCEDKDY [RPN6] | 2.9 ± 0.052
AELFNNDIKLFVDDTNV [PRP8] | 2.17 ± 0.065
AENSHTQPKATSTGTTI [PUP1] | 3.17 ± 0.073

Sequence | protein stability index
AETKSYDSRGVGEMKLL [YLR335W/NUP2] | 1.94 ± 0.064
AETLCFTVNVLYPDSSS [RPN3] | 2.56 ± 0.055
AEVQSLFQDGSASLHTR [RRP4] | 2.57 ± 0.13
AFDKHMNLVLNECIEER [SMB1] | 2.06 ± 0.14
AFFHLFASLRVLPDADV [YJL039C/NUP192] | 1.17 ± 0.08
AFRRIMISEVPSVAAEY [RPC40] | 1.35 ± 0.052
AFTRKQANQVKRHSYAQ [RPS1A] | 1.8 ± 0.024
AFVPKKRKTNIIMFVGL [SRP54] | 2.03 ± 0.1
AGCKIDNVDDIGEFNVS [YDL088C/ASM4] | 3.25 ± 0.11
AGDIQLQYGWKVERHIM [RPO21] | 1.18 ± 0.067
AGENAPSIVFIDEIDAI [RPT2] | 2.03 ± 0.17
AGETLILDGLTVRLVNL [SRB2] | 2.43 ± 0.071
AGKFELLDRILPKLKAT [SNF2] | 1.18 ± 0.17
AGNIKCRNDAVNWLAYT [BRR2] | 3.13 ± 0.05
AGTKITICIELKTVLHN [RGR1] | 1.18 ± 0.062
AHMSIGCLHKGKLISNL [YML031W/NDC1] | 2.04 ± 0.079
AHMWPRVHDQPLIWQLL [POP3] | 1.42 ± 0.12
AHRIMLTNILRMMGCVK [FAS2] | 1.86 ± 0.061
AHRVRDLMDEELRKHAQ [SKI6] | 3.14 ± 0.14
AICRNHIMEPCIECQPK [HRT1] | 2.26 ± 0.081

same assay, conditions: pdr5∆

Sequence | protein stability index
AAAAPAPVAAAAPAAAA [FAS2] | 1.62 ± 0.27
AAGALFVSSGFDTSIKL [RPN14] | 2.52 ± 0.045
AAGIWTCSCCKKTVAGG [RPL43A] | 3.17 ± 0.11
AAGSYYVEAQHKLVFVV [RPL7A] | 2.74 ± 0.048
AAKLKQTENDLKDIEAR [RPT1] | 2.53 ± 0.1
AAKTRSYNWGAKAKRRH [RPL37A] | 3.39 ± 0.082
AALAPKIGPLGLSPKKV [RPL12A] | 3.08 ± 0.097
AAQAQAQAQAQAQAQAQ [GAL11] | 2.9 ± 0.043
AARDNKKTRIIPRHLQL [HTA1] | 3.38 ± 0.11
AAREKKIRELEAELSST [YIL149C/MLP2] | 3.25 ± 0.25
AARVDIGQIIFSVRTKD [RPL10] | 1.67 ± 0.081
AASTPTTTATPHANPIT [PGD1] | 2.85 ± 0.035
ADIENSTSGDPSEFHCL [SSN2] | 3.31 ± 0.26
ADINLEESIRESLQKRE [SIR3] | 3.28 ± 0.088
ADNVDKILEQFEYVLYP [FAS2] | 1.94 ± 0.089
ADRNDDDEGSFAQENSE [SRB6] | 3.22 ± 0.13
ADTLDPALLRPGRLDRK [RPT3] | 3.56 ± 0.16
ADYRLILTGTPLQNNLP [SNF2] | 2.15 ± 0.043
AEDDVIIPQDILDCVVT [YJR042W/NUP85] | 3.04 ± 0.065
AELDLMSGILHCEDKDY [RPN6] | 3.08 ± 0.047
AELFNNDIKLFVDDTNV [PRP8] | 2.09 ± 0.053

Sequence | protein stability index
AENSHTQPKATSTGTTI [PUP1] | 3.1 ± 0.071
AETKSYDSRGVGEMKLL [YLR335W/NUP2] | 2.1 ± 0.11
AETLCFTVNVLYPDSSS [RPN3] | 2.69 ± 0.05
AEVQSLFQDGSASLHTR [RRP4] | 2.78 ± 0.16
AFDKHMNLVLNECIEER [SMB1] | 2.34 ± 0.19
AFFHLFASLRVLPDADV [YJL039C/NUP192] | 1.24 ± 0.078
AFRRIMISEVPSVAAEY [RPC40] | 1.49 ± 0.056
AFTRKQANQVKRHSYAQ [RPS1A] | 1.75 ± 0.024
AFVPKKRKTNIIMFVGL [SRP54] | 2.16 ± 0.088
AGCKIDNVDDIGEFNVS [YDL088C/ASM4] | 2.8 ± 0.097
AGDIQLQYGWKVERHIM [RPO21] | 1.24 ± 0.12
AGENAPSIVFIDEIDAI [RPT2] | 2.46 ± 0.21
AGETLILDGLTVRLVNL [SRB2] | 2.97 ± 0.082
AGGEAGEAEAEKEEEEA [RPP1A] | 3.47 ± 0.21
AGKFELLDRILPKLKAT [SNF2] | 2.05 ± 0.14
AGNIKCRNDAVNWLAYT [BRR2] | 3.49 ± 0.039
AGTKITICIELKTVLHN [RGR1] | 1.32 ± 0.07
AHMSIGCLHKGKLISNL [YML031W/NDC1] | 1.9 ± 0.058
AHMWPRVHDQPLIWQLL [POP3] | 1.64 ± 0.12
AHRIMLTNILRMMGCVK [FAS2] | 1.87 ± 0.06
AHRVRDLMDEELRKHAQ [SKI6] | 3.39 ± 0.12
